Measured values from patent US20040131678A1, “Resorbable bone cement containing active agents” (priority 2001, published 2004).

What was measured:
[1] = Release kinetics of bone growth factor and antimicrobial peptide from cement pellets into culture medium; assay type: physicochemical; conditions: for cumulative release of TGFβ, of the original amount mixed in the cement: ELISA
Method: The release kinetics of the bone growth factor and of the antimicrobial peptide from bone substitute have been determined as follows:
In the release experiments the cement powder (40 mg) was mixed on a glass plate with TGFβ-containing liquid (13.3 μl), giving a paste of 53 mg cement with 133 ng TGFβ and 250 μg DHVAR 5. After 1 min of mixing the cement paste was applied into a Teflon mould with a diameter of 5 mm and measuring 1 mm in height. After 2 min the cement pellets were removed from the mould and added to the wells of 12-well culture plates (Costar, Cambridge, Mass., USA). Complete culture medium (Dulbecco's modified Eagle's medium (DMEM, Gibco-BRL Life Technologies Ltd. Paisley, UK) with 10% fetal bovine serum (FBS; Gibco) was added at 1 ml per well, to wells containing a TGFβ DHVAR5 enriched cement pellet as described above. The multiwell plates were incubated at 37° C. in 5% CO2 and 95% humidity. Culture medium was renewed completely at suitable time intervals (0.5, 1, 2, 4, 24, 48 hr and 1, 2, 4 and 8 weeks), and the medium samples were stored at −20° C. until used for TGFβ and DHVAR 5 determination. TGFβ was determined in the collected culture medium samples using a commercially available enzyme-linked immunosorbant assay (ELISA) (Promega, Madison, Wis., USA). A few cement pellets were crushed in the well with a mortar at 48 hr, after removal of the medium. The fragments were incubated in fresh medium for 1 hr; medium was then removed and stored for DHVAR5 and TGFβ determination. The amount of DHVAR5 released was determined by subjecting medium samples to capillary zone electrophoresis. Biological activity against S. aureus was confirmed in a standard killing assay. TGFβ was assayed by standard immunological analysis and by examination of the potency to promote cell growth as described above. The release of TGFβ from a cement pellet that incorporated TGFβ and DHVAR5 (133 ng TGFβ and 250 μg DHVAR 5 in 53 mg cement) at the time of setting of the cement, is shown in FIGS. 3 and 4 respectively. A rapid TGFβ release was found in the first 4 hr followed by a much slower release. The cumulative release found after 4 hr was 0.5% of the original amount of TGFβ mixed in the cement and increased to 1% after 48 hr. Release of TGFβ continued slowly hereafter, with maximal 0.1% released during the next 8 weeks (data not shown).
Similar results were obtained with peptides of Seq. ID Nos. 1-3, 5-7.

S. aureus = test: Standard killing assay of released peptide; assay type: cell-based; conditions: medium samples from release experiment
Method: In the release experiments the cement powder (40 mg) was mixed on a glass plate with TGFβ-containing liquid (13.3 μl), giving a paste of 53 mg cement with 133 ng TGFβ and 250 μg DHVAR 5. After 1 min of mixing the cement paste was applied into a Teflon mould with a diameter of 5 mm and measuring 1 mm in height. After 2 min the cement pellets were removed from the mould and added to the wells of 12-well culture plates (Costar, Cambridge, Mass., USA). Complete culture medium (Dulbecco's modified Eagle's medium (DMEM, Gibco-BRL Life Technologies Ltd. Paisley, UK) with 10% fetal bovine serum (FBS; Gibco) was added at 1 ml per well, to wells containing a TGFβ DHVAR5 enriched cement pellet as described above. The multiwell plates were incubated at 37° C. in 5% CO2 and 95% humidity. Culture medium was renewed completely at suitable time intervals (0.5, 1, 2, 4, 24, 48 hr and 1, 2, 4 and 8 weeks), and the medium samples were stored at −20° C. until used for TGFβ and DHVAR 5 determination. TGFβ was determined in the collected culture medium samples using a commercially available enzyme-linked immunosorbant assay (ELISA) (Promega, Madison, Wis., USA). A few cement pellets were crushed in the well with a mortar at 48 hr, after removal of the medium. […] The amount of DHVAR5 released was determined by subjecting medium samples to capillary zone electrophoresis. […]

For TGFβ, the “cumulative release of TGFβ, of the original amount mixed in the cement” value ([1]; after 4 hr, cement pellet 133 ng TGFβ and 250 μg DHVAR 5 in 53 mg cement, DMEM with 10% FBS, 37° C.) was 0.5%, the “cumulative release of TGFβ, of the original amount mixed in the cement” value ([1]; after 48 hr, same pellet, DMEM with 10% FBS, 37° C.) was 1% and the “TGFβ released during the next 8 weeks” value ([1]; after the first 48 hr, maximal, data not shown) was at most 0.1%. The “TGFβ released within 1 hr after fragmentation” value ([1]; pellets fragmented at 48 hr, fresh medium 1 hr, data not shown) was “approximately 0.5%”.
In the case of gentamicin [reference compound], the “release kinetics from cement” value ([1]; in a similar test) is reported as “incomplete and slow release kinetics”.
For “LLLFLLKKRKKRKY [DHVAR-5, anti-microbial peptide, synthetic derivative based on histatin 5 carboxyterminal]”, the “antimicrobial peptide released from the cement material” value ([1]; after 4 days) was “more than 80%”, the “release of DHVAR 5 from the cement material” value ([1]; within 48 hours, capillary zone electrophoresis, DMEM with 10% FBS, 37° C.) was 70% and the “Biological activity against S. aureus of released peptide” value (S. aureus) was “confirmed”.
